Here are results for 5 molecules from US20220289833A1 (BIOSION, published 2022).

In test [1] the target is T1, human TSLP-Fc (human, biotin-labeled).
T1 construct: Prepared in-house; also called biotin-labeled human TSLP-Fc; TSLP-Fc-biotin
The test is described as follows: cell-based ligand-blocking FACS: antibody pre-mixed with human TSLP-Fc; blocked binding to BAF3-3E6 cells expressing human TSLPR and IL7R.

Test [2] deals with T2, Recombinant human TSLP-his (human, UniProt Q969D9 29-159).
T2 construct: Prepared in-house; Amine-coupled to CM5 chip in SPR, loaded on APS sensors in Octet, biotin-labeled in the capture ELISA, unlabeled in the cell functional assays; also called human TSLP-his protein
The test is described as follows: SPR, BIAcore; protocol of Example 2.

Test [3] concerns the target T3, Recombinant cynomolgus monkey TSLP-his (cynomolgus monkey).
T3 construct: Prepared in-house; Amine-coupled to CM5 chip in SPR, coated on plates in the indirect ELISA; also called cynomolgus TSLP; cynomolgus TSLP-his protein
T3 chain: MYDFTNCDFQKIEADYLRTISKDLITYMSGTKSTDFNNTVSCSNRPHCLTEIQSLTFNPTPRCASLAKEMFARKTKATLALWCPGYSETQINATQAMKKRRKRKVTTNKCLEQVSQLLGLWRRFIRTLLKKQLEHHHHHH
The experiment in a line: SPR, BIAcore; protocol of Example 2.

For test [4], the target named is T2, Recombinant human TSLP-his. The test is described as follows: capture ELISA: antibody captured on anti-IgG Fc coat, biotin-labeled human TSLP-his detected with streptavidin-HRP.
In test [5] the target is T2, Recombinant human TSLP-his. The description is as above. This is another data set of the same source.
The target of test [6] is T1, human TSLP-Fc. The experiment in a line: competitive ELISA: antibody pre-mixed with biotin-labeled human TSLP-Fc; blocked binding to coated human TSLPR-Fc/IL7Ra-Fc.
Test [7] has as its target T1, human TSLP-Fc. The experiment in a line: cell-based ligand-blocking FACS: antibody pre-mixed with human TSLP-Fc; blocked binding to BAF3-3E6 cells expressing human TSLPR and IL7R. This is another data set of the same source.
Test [8] concerns the target T1, human TSLP-Fc. The test is described as follows: competitive ELISA: antibody pre-mixed with biotin-labeled human TSLP-Fc; blocked binding to coated Tezepelumab.
Test [9] deals with T3, Recombinant cynomolgus monkey TSLP-his. The test is described as follows: indirect ELISA on coated cynomolgus TSLP-his.
For test [10], the target named is T1, human TSLP-Fc. The test is described as follows: competitive ELISA: antibody pre-mixed with biotin-labeled human TSLP-Fc; blocked binding to coated human TSLPR-Fc/IL7Ra-Fc. The source holds these as a separate data set.
Test [11] has as its target T1, human TSLP-Fc. The test is described as above. The source holds these as a separate data set.
In test [12] the target is T2, Recombinant human TSLP-his. The test is described as follows: BLI, Octet; TSLP-his loaded on APS biosensor, antibody in solution; 1:1 Langmuir fit.
In test [13] the target is T3, Recombinant cynomolgus monkey TSLP-his. The experiment in a line: indirect ELISA on coated cynomolgus TSLP-his; the row head of the drawn table reads IC50 although the curve rises (EC50 values were reported).
Test [14] has as its target T2, Recombinant human TSLP-his. The test is described as follows: capture ELISA: antibody captured on anti-IgG Fc coat, biotin-labeled human TSLP-his detected with streptavidin-HRP. The source holds these as a separate data set.
Test [15] has as its target T1, human TSLP-Fc. The experiment in a line: competitive ELISA: antibody pre-mixed with biotin-labeled human TSLP-Fc; blocked binding to coated Tezepelumab. This is another data set of the same source.
Test [16] addresses T2, Recombinant human TSLP-his. The experiment in a line: capture ELISA: antibody captured on anti-IgG Fc coat, biotin-labeled human TSLP-his detected with streptavidin-HRP. The source holds these as a separate data set.
Test [17] has as its target T1, human TSLP-Fc. The experiment in a line: competitive ELISA: antibody pre-mixed with biotin-labeled human TSLP-Fc; blocked binding to coated Tezepelumab. This is another data set of the same source.
The target in test [18] is T2, Recombinant human TSLP-his. The test is described as follows: SPR, Biacore T200; TSLP-his amine-coupled to CM5 chip, antibody as analyte; 1:1 Langmuir fit.
Test [19] deals with T1, human TSLP-Fc. The test is described as follows: cell-based ligand-blocking FACS: antibody pre-mixed with human TSLP-Fc; blocked binding to BAF3-3E6 cells expressing human TSLPR and IL7R. The source holds these as a separate data set.
Test [20] deals with T1, human TSLP-Fc. Described as above. This is another data set of the same source.
In test [21] the target is T3, Recombinant cynomolgus monkey TSLP-his. The test is described as follows: indirect ELISA on coated cynomolgus TSLP-his.
Test [22] addresses T2, Recombinant human TSLP-his. The experiment in a line: SPR, Biacore T200; protocol of Example 2.
For test [23], the target named is T3, Recombinant cynomolgus monkey TSLP-his. The experiment in a line: SPR, Biacore T200; cynomolgus TSLP-his amine-coupled to CM5 chip, antibody as analyte; 1:1 Langmuir fit.
Test [24] addresses T1, human TSLP-Fc. The test is described as follows: competitive ELISA: antibody pre-mixed with biotin-labeled human TSLP-Fc; blocked binding to coated Tezepelumab. The source holds these as a separate data set.
For test [25], the target named is T1, human TSLP-Fc. The experiment in a line: competitive ELISA: antibody pre-mixed with biotin-labeled human TSLP-Fc; blocked binding to coated human TSLPR-Fc/IL7Ra-Fc. This is another data set of the same source.
For test [26], the target named is T3, Recombinant cynomolgus monkey TSLP-his. The test is described as follows: SPR, Biacore T200; cynomolgus TSLP-his amine-coupled to CM5 chip, antibody as analyte.
Test [27] concerns the target T1, human TSLP-Fc. The experiment in a line: cell-based ligand-blocking FACS: antibody pre-mixed with human TSLP-Fc; blocked binding to BAF3-3E6 cells expressing human TSLPR and IL7R; lower plateau at MFI about 550 (partial blocking).

Like-named read-outs stand apart in the source and are kept apart here.

B1: mouse 1C5F12E9 (antibody, V domains shown)
VH: QVQLQQPGTELVKPGASVKMSCKASGYTFTTYWMHWVKQRPGQGLEWIGVIDPSDSDTTYNQKFKGKATLTVDTSSSTAYMQLSSLTSEDSAVYYCTRSLDGYYDYWGQGTTLTVSS
VL: DIQMTQSPASLSASVGETVTITCRPTENIYSYLAWYQQKQGKSPHLLVYFARTLAEGVPSRFSGSGSGTQFSLKINSLQPEDFGIYYCQHHYGTPWTFGGGTKLEIK
notes: also called mouse anti-TSLP 1C5F12E9 antibody
B1: the IC50 in [1] was found to be 0.625 nM; in test [6], 0.694 nM; in [7] it was 0.514 nM; in [8] it was 0.15 nM; in test [10], 0.391 nM; in test [11] it was 0.139 nM. In addition, the IC50 was 0.366 nM in test [15], 0.262 nM in test [17], 1.63 nM in test [19] and 2.41 nM in test [20]. Also, the Kd is < 0.0966 nM in test [2], < 0.0346 nM in test [3], 0.226 nM in [12] and < 0.11 nM in test [18]. Besides, the koff was < 1e-05 s⁻¹ in test [2], < 1e-05 s⁻¹ in test [3], 0.000135 s⁻¹ in test [12] and < 1e-05 s⁻¹ in [18]. In addition, the kon was 104000 M⁻¹ s⁻¹ in test [2], 289000 M⁻¹ s⁻¹ in test [3], 600000 M⁻¹ s⁻¹ in test [12] and 91100 M⁻¹ s⁻¹ in test [18]. Besides, the EC50 worked out at 0.146 nM in [4]; 0.16 nM in test [5]; 0.101 nM in test [9]; 0.407 nM in test [13]; 0.36 nM in [14]; 0.151 nM in test [16]. In [21], the EC50 was 0.202 nM.

B2: Chimeric 1C5F12E9 (antibody, human IgG1, kappa, V domains shown)
VH: B1 VH
VL: DIQMTQSPASLSASVGETVTITCRPTENIYSYLAWYQQKQGKSPHLLVYFARTLAEGVPSRFSGSGSGTQFSLKINSLQPEDFGIYYCQHHYGTPWTFGGGTKLEIKR
notes: Human IgG1/kappa chimera expressed in 293F cells; also called chimeric 1C5F12E9 antibody
For B2, the Kd is < 0.0517 nM in test [2], < 0.0261 nM in test [3], 0.914 nM in [22] and 0.222 nM in [12]. The koff in test [2] is < 1e-05 s⁻¹; in test [3], < 1e-05 s⁻¹; in [22], 6.36e-05 s⁻¹; in test [12], 0.000159 s⁻¹. The kon in [2] was 193000 M⁻¹ s⁻¹; in test [3] it was 383000 M⁻¹ s⁻¹; in [22], 69600 M⁻¹ s⁻¹; in test [12] it was 715000 M⁻¹ s⁻¹. In addition, the IC50 in test [7] is 0.627 nM; in test [11], 0.1 nM; in test [15], 0.291 nM; in [20] it was ~3.12 nM. Besides, the EC50 in [14] amounted to 0.448 nM; in [16] it was 0.161 nM; in test [21], 0.0918 nM.

B3: Tezepelumab (antibody, human IgG2, lambda, V domains shown)
VH: QMQLVESGGGVVQPGRSLRLSCAASGFTFRTYGMHWVRQAPGKGLEWVAVIWYDGSNKHYADSVKGRFTITRDNSKNTLNLQMNSLRAEDTAVYYCARAPQWELVHEAFDIWGQGTMVTVSS
VL: SYVLTQPPSVSVAPGQTARITCGGNNLGSKSVHWYQQKPGQAPVLVVYDDSDRPSWIPERFSGSNSGNTATLTISRGEAGDEADYYCQVWDSSSDHVVFGGGTKLTVLG
notes: also called TSLP-BM; benchmark
As for B3, the Kd in test [23] came out at 0.0733 nM; in test [3], 0.0672 nM. In addition, the IC50 is 0.759 nM in [1]; 5.79 nM in [24]; 0.99 nM in test [6]; 0.728 nM in test [7]; 0.18 nM in test [8]; 0.506 nM in [10]. Moreover, the IC50 worked out at 0.0777 nM in test [11]; 0.486 nM in [15]; 0.495 nM in [17]; 1.48 nM in test [19]; 6.27 nM in test [25]; 1.45 nM in test [20]. For the same molecule, the values for the EC50 in test [9] and in [21] were 0.127 nM and 0.105 nM, respectively.

B4: Mouse D1C2H1H1 (antibody, V domains shown)
VH: QVTLKESGPGILQPSQTLSLTCSFSGFSLSTYGMGIGWIRLPSGKGLEWLASIWWDDNRYFNAALKSRLTISKDASKNQVFLKIASVDTADTATYYCARIEDGYYSYHSYWGQGTLVTVSA
VL: DIVLTQSPASLAVSLGQRATISCKASQSVDFDGDSYMNWFQQKPGQPPKLLIYAASNLVSGIPARFSGSGSGTDFTLNIHPVEEEDAATYYCQQIDEDPYTFGGGTKLEIE
notes: Mouse hybridoma mAb
For the molecule B4, the values for the EC50 in [4] and in test [9] were 0.17 nM and 4.18 nM, respectively. The IC50 in test [10] came to 0.114 nM; in [17], 0.12 nM; in [19] it was 2.14 nM. Also, the Kd in test [18] is < 0.0149 nM; in test [26], 7.23 nM. Moreover, the koff in [18] was < 1e-05 s⁻¹. Besides, the kon in test [18] worked out at 672000 M⁻¹ s⁻¹.

B5: Mouse D1D8H9F7 (antibody, V domains shown)
VH: QVQLQQSGADLVRPGSSVKISCKTSGFAFSSYYMNWVKQRPGQGLEWIGQIYPGDGETNYNGKFKDKATLTADKSSSTVYMQLSSLTSEDSAVYFCARAGYSDYVYAMDYWGQGTSVTVSS
VL: EIVLTQSPALMAASPGEKVTIICSVSSSITSSNLHWYQQKSETSPKPWIYGTSNLASGVPVRFSGSGSGTSYSLTISSMEAEDAATYYCQQWSSFPLTFGSGTKLEIK
notes: Mouse hybridoma mAb
As to B5, in [4], the EC50 is 0.126 nM. For the same molecule, the binding result in [9] is listed as “no binding (tested: about 67 nM)”. The molecule also had an IC50 in [10] of 0.5 nM. In test [27], the IC50 is 1.83 nM. Moreover, in test [18], the Kd was determined as 0.18 nM, the off-rate constant (koff) came out at 3.09e-05 s⁻¹ and the kon amounted to 172000 M⁻¹ s⁻¹.
